Target: α-bungarotoxin (α-BuTx) (Bungarus multicinctus, UniProt P60615 22-95)
Assay: 20 mM HEPES pH 7.4, 150 mM NaCl, 5 mM KCl, 2 mM MgCl2, 2 mM CaCl2, room temperature
Details: protein: commercial; label: 5'-FAM (FA, filter, EMSA); biotin (ELAA); stem-loop (predicted)

Sequence of α-bungarotoxin (α-BuTx) (P60615 22-95): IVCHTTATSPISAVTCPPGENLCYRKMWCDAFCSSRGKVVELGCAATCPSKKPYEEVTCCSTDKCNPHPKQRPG

B1: βB-1 (ssDNA)
DNA: AGCAGCACAGAGGTCAGATGGTTTTCCCCTTGTCGCTTTTGGTTCGTTCTGCCTCTATCTCCTATGCGTGCTACCGTGAA
B1: no binding.
